B1: M1-1 anti-PD1 antibody (human IgG4/kappa, C-terminal 6xHis) (antibody, V domains shown)
VH: QVQLVESGGDVVQPGGSLRLSCAASGVAFRDYGMHWVRQAPGKGLEWVAVIWYDGSKKYYGDSVKGRFTVSRDNSKNMLYLEMNGLKAEDTAMYYCARNDDYWGQGTLVTVSS
VL: EIVLTQSPATLSLSPGERATLSCRASQSVSNSLSWYQQNPGQSPRLIIYDTSKRATGIPARFSGSGSGTDFTLTINNLETEDFAVYYCHQRSDWPLTFGGGTKVEIK
B2: M1-6 anti-PD1 antibody (human IgG4/kappa, C-terminal 6xHis) (antibody, V domains shown)
VH: QVQLVESGGDVVQSGGSLRLSCAVSGVVFSDYGFEWVRQAPGKGLEWVAVIWYDGSRKHYADSVQGRFTISRDNFRNMLYLQMTGLRVEDTAKYYCTRSHSHEDYWGQGTLVTVSS
VL: EIVLTQSPATLSLSPGERATLSCGASQNIDNSLAWFQQKPGQAPRLIIYDASKRATGIPARFSGSGSGTDFTLTISTLEPEDFAVYYCQQRDHWPLNFGGGTKVEVK
B3: M1-5 anti-PD1 antibody (human IgG4/kappa, C-terminal 6xHis) (antibody, V domains shown)
VH: QVQLVESGGDVVQPGGSLRLSCTVSGAVFRDLGMEWVRQAPGKGLEWLAVIWYDGGRKHYADSVKGRFTISRDNSRNMLFLQMNGLRVDDTAMYYCTRSHSTDDYWGQGTLVTVSS
VL: EIVLTQSPATLSVSPGERATLSCRASQSISSDLAWFQQKPGQAPRLIIHGASKRATGIPARFSGSGSGTDFTLTISSLEPEDFAVYYCQQRDSWPLNFGGGTKVEIK
B4: M2-5 anti-PD1 antibody (human IgG4/kappa, C-terminal 6xHis) (antibody, V domains shown)
VH: QVQLVESGGDVVQPGGSLRLSCAASGVVFSDYGLYWVRQAPGKGLEWVALIWYDGSKKFYADSVKGRFSISRDNSKNMLYLQMNNLRADDSAIYYCSRGIRQGPWFAYWGQGTRVTVSP
VL: B3 VL with V13L, A34T, H49Y, G50D, K53N, A84V, Q89L, D92S, S93D, N97T
B5: M2-3 anti-PD1 antibody (human IgG4/kappa, C-terminal 6xHis) (antibody, V domains shown)
VH: QGHLVESGGDVVLPGGSLRLSCTESGVDLSDFGIHWVRQTPGKGLEWVALIWYDGSKKFYADSVKDRFTISRDNSKNMVYLEMISLRVEDTAMYFCARGIRRGPWFTYWGPGTLVTVST
VL: B3 VL with A9V, T10I, V13L, K39T, H49Y, G50D, K53N, D92S, S93N, N97T
B6: M1-4 anti-PD1 antibody (human IgG4/kappa, C-terminal 6xHis) (antibody, V domains shown)
VH: B2 VH with S14P, V28T, S30G, Y32F, D62E, Q65R, F75S, L79M, Q82E
VL: B3 VL with V13L, S31N, D32Y, P40S, G50D, S52F, T56A, A60T, S93N
B7: 17D8 anti-PD1 antibody (human IgG4/kappa, C-terminal 6xHis) (antibody, V domains shown)
VH: B1 VH with R30S, D31N, K57N, G61A, V70I, E82Q, G85S, K87R
VL: B3 VL with V13L, I29V, D32Y, F36Y, H49Y, G50D, K53N, D92S, S93N, N97T
B8: M1-7 anti-PD1 antibody (human IgG4/kappa, C-terminal 6xHis) (antibody, V domains shown)
VH: QLQLVESGGDVVQPGGSLRLSCAASGVVFSDFGLEWVRQAPGKGLEWLAVIWYDGSRKHYADSVKGRFTISRDNSKNMLYLQMNSLRVEDTAMYYCARCHSKEDYWGQGTLVTVSS
VL: EIEVTQSPATLSLSPGERATLSCRASQSIDTDLAWFQQRPGQTPRLIIYDASKRATGIPARFSGGGSGTDFTLTISSLEPEDFAVYYCQQRTTWPLTFGGGTKVEIK
B9: M1-2 anti-PD1 antibody (human IgG4/kappa, C-terminal 6xHis) (antibody, V domains shown)
VH: B8 VH with L2V, V28A, F32Y, L34M, M78I, V88A, E103D
VL: B8 VL with E3V, V4L, S7F, A25T, S28N, T31S, R39K, T43A, K53N, S76T
B10: M2-1 anti-PD1 antibody (human IgG4/kappa, C-terminal 6xHis) (antibody, V domains shown)
VH: QVQLVESGGDVVQPGGSLRLSCSASGLVFRDYGMNWVRQAPGKGLEWVGLIWYDGTKKYYSDFVKGRFTISRDNSKNMLYLQMNNLRAEDTAIYYCARFLIGATRRGNAMDYWGQGTSVIVSS
VL: EVVLTQSPATLSLSPGERATLSCRASQSIDSDLAWSQQKTGQPPRLIIYDASNRATGIPARFSGSGSGTDFTLTISSLEPEDFAVYYCQQRSDWPLTFGGGTKVEIR
B11: M2-2 anti-PD1 antibody (human IgG4/kappa, C-terminal 6xHis) (antibody, V domains shown)
VH: B10 VH with F29I, R30S, T56S, M78I, I93M, I120T
VL: B10 VL with T40P
B12: M1-3 anti-PD1 antibody (human IgG4/kappa, C-terminal 6xHis) (antibody, V domains shown)
VH: QEWLVESGGDVVQPGGSLRLSCATSKVTFNDFGIHWVRQAPGKGLEWVAIIWYDGSRNHYADSVRGRFTLSRDNSKNMVHLHMSSLRTEDTAMYYCARGIHSNDDYWGQGTMVTVSS
VL: EIVLTQSPATLSLSPGERATLSCRTSQSVSSDLAWFQQKPGQAPRLFIFDASKRVNGIPARFSGSGSGTDFTLTISSLEPEDFAVYYCQQRTDWPLTFGGGSRVEIK
B13: M2-4 anti-PD1 antibody (human IgG4/kappa, C-terminal 6xHis) (antibody, V domains shown)
VH: QVQLVESGGDVVQPGGSLRLSCAASGVAFRNYGMHWVRQAPGKGLEWVAIIWYDGSNKYYADSVKGRFTISRDNSKNMLYLQMNSLRAEDTAMYYCARLSIGTTHYFDTDDYWGQGTSVTVSS
VL: EIVLTQSPATLSLSPGERATLSCRASQSVSSYLAWYQQKVGQAPRLIIFDASNRATGIPARFSGSGSGTDFTLTITSLDPEDFAVYYCQQRSAWPLTFGGGTKVEIR
B14: 17D8 anti-PD1 antibody (human IgG4/k, without C-terminal His tag) (antibody, V domains shown)
VH: B1 VH with R30S, D31N, K57N, G61A, V70I, E82Q, G85S, K87R
VL: B13 VL with V40P, F49Y, T76S, D79E, A93N, R107K
B15: M1-5 anti-PD1 antibody (human IgG4/k, without C-terminal His tag) (antibody, V domains shown)
VH: B3 VH
VL: B3 VL
B16: M2-1 anti-PD1 antibody (human IgG4/k, without C-terminal His tag) (antibody, V domains shown)
VH: B10 VH
VL: B10 VL

Numbering of substitutions follows the chain as printed.

T1 sequence (Q15116 25-170): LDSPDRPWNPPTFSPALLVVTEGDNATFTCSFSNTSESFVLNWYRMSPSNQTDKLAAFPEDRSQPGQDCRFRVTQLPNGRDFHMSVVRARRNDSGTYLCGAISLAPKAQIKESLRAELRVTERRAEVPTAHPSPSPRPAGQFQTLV

In one assay the target is full-length human PD1 expressed on the surface of NS1 cells (human, UniProt Q15116). The assay can be described thus: flow cytometry on cells. In general terms: Flow cytometry measures light scatter and fluorescence of single cells or particles in a stream.
Chain of full-length human PD1 expressed on the surface of NS1 cells (Q15116 25-288): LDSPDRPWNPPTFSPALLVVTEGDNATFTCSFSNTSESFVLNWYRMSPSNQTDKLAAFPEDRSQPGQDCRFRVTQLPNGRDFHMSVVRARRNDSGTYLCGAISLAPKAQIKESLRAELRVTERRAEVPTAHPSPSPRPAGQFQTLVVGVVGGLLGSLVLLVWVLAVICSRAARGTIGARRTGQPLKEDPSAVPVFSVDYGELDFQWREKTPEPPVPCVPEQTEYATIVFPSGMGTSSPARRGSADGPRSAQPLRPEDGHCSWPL
For the molecule B1, the binding result was “binds”.

Turning to B2, the binding result is “binds”.

With B3, the binding result is on record as “binds”.

B4: the binding result was “binds”.

Turning to B5, the binding result is listed as “binds”.

With B6, the binding result is “binds”.

Turning to B7, the binding result is recorded as “binds”.

For the molecule B8, the binding result is given as “binds”.

Take B9: the binding result is given as “binds”.

For the molecule B10, the binding result is reported as “binds”.

Turning to B11, the binding result is on record as “binds”.

Turning to B12, the binding result is “binds”.

As for B13, the binding result is “binds”.

The next assay concerns the target T1, PD1 extracellular domain, without Fc fusion (Homo sapiens, UniProt Q15116). The assay can be described thus: SPR. Background: SPR reads the build-up and loss of mass on a sensor chip optically.
In the case of B14, the binding result is listed as “binds”.

As to B15, the binding result is given as “binds”.

Turning to B16, the binding result was “binds”.

The target in another assay is T2, PD1 N-terminal loop-GST fusion protein (Homo sapiens).
T2 chain: LDSPDRPWNP
Put plainly: ELISA.
With B1, the binding result is recorded as “binds”.

Take B2: the binding result is “binds”.

As to B3, the binding result is “binds”.

Regarding B4, the binding result is given as “binds”.

For B5, the binding result was “binds”.

As to B6, the binding result is recorded as “binds”.

For B9, the binding result is “no binding”.

As to B10, the binding result is on record as “binds”.

Consider B11, for which the binding result is “binds”.

As to B12, the binding result is recorded as “binds”.

With B13, the binding result is “binds”.

For another assay, the target named is T1, PD1 extracellular domain, without Fc …. The assay can be described thus: ELISA.
For the molecule B2, the binding result is “binds”.

For B3, the binding result is “binds”.

For the molecule B4, the binding result is “binds”.

Take B5: the binding result was “binds”.

Regarding B6, the binding result is on record as “binds”.

Turning to B10, the binding result is recorded as “binds”.

In the case of B11, the binding result is “binds”.

B12: the binding result was “binds”.

Values taken from paper doi:10.1101/2020.12.12.421834 (bioRxiv, 2020).
